Results as given in paper PMC11750923, “High-affinity ssDNA aptamer and chemiluminescent aptasensor for TIMP-1 detection in human serum”.

Biological target: TIMP-1 (tissue inhibitor of metalloproteinases 1) (human, UniProt P01033 24-207)
Assay: BLI; DPBS + 0.025% Tween 20; kon 1.30e6 M-1 s-1, koff 5.36e-4 s-1; 1:1 with mass transport; DPBS (138 mM NaCl, 2.67 mM KCl, 8.1 mM Na2HPO4, 1.47 mM KH2PO4, 1 mM CaCl2, 0.5 mM MgCl2); BLI with 0.025% Tween 20; pH and temperature not stated
Conditions: protein: commercial; tags: His; label: biotin (BLI); hairpin

TIMP-1 (tissue inhibitor of metalloproteinases 1), sequence (P01033 24-207): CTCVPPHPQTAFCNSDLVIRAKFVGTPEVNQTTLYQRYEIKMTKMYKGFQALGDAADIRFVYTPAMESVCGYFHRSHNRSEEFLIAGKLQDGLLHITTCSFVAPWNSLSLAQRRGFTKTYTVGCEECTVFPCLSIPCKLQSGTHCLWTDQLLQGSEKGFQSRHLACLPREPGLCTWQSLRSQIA

B1: Apt-4 (ssDNA)
DNA: CACGCATAGCGCCCCAACCCCAGTCGATGAAATTGCGTCGCGGGTGCCTATGCGTG
Kd: 0.41 nM
